Assay results published in the supplement of paper PMC7125110.
± gives the standard error. This sample holds only a part of the variants without activity.

B1: glmS ribozyme (parent)
chain: AUAAAAGCGCCAGAACUACAGAAAUGUAGUUGACGAGGAGGAGGUUUAUCGAAUUUUCGGCGGAUGCCUCCAAA

How the values were obtained:
Conditions in all cases: with glucosamine-6-phosphate
[1] = variants of: B1; assay: self-cleavage kobs at 640 uM GlcN6P; higher = faster cleavage; RNA array
Procedure, shortened: (§1)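 Barcoded ribozyme variants were transcribed in situ on sequenced MiSeq chips by E. coli RNA polymerase. At 37 °C, a hybridised Cy3 probe tracked them while glucosamine-6-phosphate (40 μM to 10 mM) in HEPES/KCl/Mg(OAc)2 buffer flowed in and tiles were imaged over ~14 h. Per-tile medians of signals normalised to baseline and to non-cleaving reference variants were fit to one- or two-exponential decays, giving kobs. kcat and KM came from weighted Michaelis–Menten fits across concentrations.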

[2] = variants of: B1; assay: self-cleavage kobs at 2500 uM GlcN6P; higher = faster cleavage; RNA array
Procedure, shortened: as §1

[3] = variants of: B1; assay: self-cleavage kobs at 10000 uM GlcN6P; higher = faster cleavage; RNA array
Procedure, shortened: as §1

| Variant | self-cleavage kobs at 640 uM GlcN6P [1] [s⁻¹] | self-cleavage kobs at 2500 uM GlcN6P [2] [s⁻¹] | self-cleavage kobs at 10000 uM GlcN6P [3] [s⁻¹] |
| --- | --- | --- | --- |
| G7A A52G U57A | < 1e-05 | < 1e-05 |  |
| A6G G7A C11G G32A U45G | < 1e-05 |  |  |
| G32U A42G G66U C68U | < 1e-05 |  |  |
| G9U G13C G43A | < 1e-05 |  |  |
| U46A C68G C71G | 0.00075 ± 0.00031 |  |  |
| G13U U31C G62A | < 1e-05 |  |  |
| G13U U31G A48G A52U | < 1e-05 |  |  |
| G7U U31G C70A | 0.000541 ± 0.00017 |  |  |
| C10U U49A U55A | < 1e-05 |  |  |
| C11U U47A A48C C61A C70U C71A | < 1e-05 | < 1e-05 |  |
| G13U A64U C70G | < 1e-05 |  |  |
| G29A G40A A64G | 5.47e-05 ± 1.8e-05 | 0.000112 ± 2.1e-05 |  |
| U56G U57G U65C | < 1e-05 | < 1e-05 |  |
| C11A G37C U65G | < 1e-05 |  |  |
| C11G U30A A33C | < 1e-05 | < 1e-05 |  |
| C8U U31G C34U U47A | < 1e-05 |  |  |
| A6U A12U G37U | < 1e-05 |  |  |
| A12U C58U C61G G62C A64G U65A G66U C67G U69C C70U | 7.34e-05 ± 2.4e-05 | 7.58e-05 ± 1.9e-05 |  |
| G41U A53U U69G | < 1e-05 |  |  |

| Variant | self-cleavage kobs at 640 uM GlcN6P [1] [s⁻¹] | self-cleavage kobs at 2500 uM GlcN6P [2] [s⁻¹] | self-cleavage kobs at 10000 uM GlcN6P [3] [s⁻¹] |
| --- | --- | --- | --- |
| U55A G63U C70G | 6.74e-05 ± 2.6e-05 |  |  |
| U31C G41A A48U C67G | < 1e-05 | < 1e-05 |  |
| C10A C61G C67G C71G | 0.000346 ± 8.8e-05 | 0.000167 ± 8.1e-05 |  |
| G29C A53G C68A | 0.000139 ± 5.9e-05 | 9.57e-05 ± 3.7e-05 |  |
| A36C U54G G63A | < 1e-05 |  |  |
| U30A U69G C71A | 0.00266 ± 0.00078 |  |  |
| G13A G59A G62A | < 1e-05 |  |  |
| G13A G44C U54G | < 1e-05 |  |  |
| G40A U57C C58A C61U | < 1e-05 |  |  |
| G9U C58G G59C | < 1e-05 | < 1e-05 |  |
| A42C C61G C70A | < 1e-05 | < 1e-05 | < 1e-05 |
| U30C C50G C61G | 0.000327 ± 0.00012 |  |  |
| A33C A48C | < 1e-05 | < 1e-05 |  |
| G40U U47C A53C U54A | 7.34e-05 ± 2.8e-05 | 0.000202 ± 3.7e-05 |  |
| C16A U30G U45G G60A G66U | < 1e-05 |  |  |
| A15U G35U U46A | < 1e-05 | < 1e-05 |  |
| G9U A15C A42U | < 1e-05 |  |  |
| G32C U47G G59C | < 1e-05 | < 1e-05 |  |
